Source: patent publication US20130045206A1 (published 2013)

B1: scFv-3TF12 (scFv)
scFv: QVQLQESGGGLVQPGGSLRLSCAASGFSFNTYTMHWVRQAPGKGLEWVADIAYDGSTKYYADSVKGRFTISRDNAKNSLYLQMNSLRAEDTAVYYCARDAVAGEGYFDLWGRGTLVTVSSGGGGSGGGGSGGGGSQSALTQDPAVSVALGQTVRITCQGDSLRSYYASWYQQLPGTAPKLLIYRNNQRPSGVPDRFSGSKSGTSASLAISGLRSEDEADYYCAAWDDSLSAWVFGGGTKLTVLGA
B2: F12CH (other)
scFv: B1 scFv
notes: Bivalent dimer of the scFv 3TF12, about 55 kDa, made in bacteria, held by a bond that DTT reduces; no Fc; also called anti-TfR F12CH; 3TF12 in the scFvCH format; not shown: tail from the bacterial vector pSYN-HIS-CYS (histidine tag, cysteine for dimerisation)
B3: F12-Fc (Fc fusion)
chain: B1 scFv
notes: Homodimer of about 110 kDa (2 x 55 kDa), made in CHO cells; also called scFv-F12-Fc; antibody F12 in the format scFv-Fc; not shown: constant CH2 and CH3 domains of a human IgG1 (vector pFuse-hG1)
B4: scFv-3TF2 (scFv)
scFv: QVQLQQSGGGVVQPGGSLRLSCAASEFTFSASGMHWVRQAPGKGLEWMAFIAYDGNQKFYADSVKGRFTISRDNSKNTLYLQMDSLRGEDTAVYYCAKEMQREGYFDYWGQGTLVTVSSGGGGSGGGGSGGGGSNFMLTQDPAVSVALGQTVRITCQGDSLRSYYASWYQQKPGQAPVLVIYGKNNRPSGIPDRFSGSKSGNSASLDISGLQSEDEADYYCATWDDNLSGPIFGGGTKVTVLG
notes: Monovalent human scFv, about 28 kDa; on phage or soluble depending on the assay; tags not described; also called anti-TfR scFv
B5: scFv-3 GH9 (scFv)
scFv: QVQLAESGGGLVKPGGSLRLSCAASGFTFSDYYMSWIRQAPGKGLEWVSYISTSGSSIYYVDSVKGRFTISRDNAKNSLYLQMDSLRDDDTAVYYCARDLHGDYAFDSWGQGTLVTVSSGGGGSGGGGSGGGGSSELTQDPAVSVALGQTVRITCQGDSLRSYYASWYQQKPGQAPVLVIYGKNNRPSGIPDRFSGSKSGNSASLDISGLQSEDEADYYCATWDDNLSGPIFGGGTKVTVLG
notes: as for B4
B6: scFv-3TG9 (scFv)
scFv: QVQLVESGGGLVEPGGSLRLSCAASGFTFSNYAINWVRQAPGKGLEWVANIHHDGNGKYYVDSVEGRFTISRDNAKNSLYLQMDSLRAEDTAIYYCARDGYGGYLDLWGQGTLVTVSSGGGGSGGGGSGGGGSSELTQDPAVSVALGQTVRITCQGDSLRSYYASWYQQKPGQAPVLVIYGKNNRPSGIPDRFSGSGSGNTASLTITGAQAEDEADYYCAAWDDSLSGPVFGGGTKVTVLG
notes: as for B4

Key:
[1] = target: T1, human transferrin receptor (TfR) (human, UniProt P02786 1-760); experiment: cell-based or functional assay
murine TfR [2] = target: T2, murine TfR (murine, UniProt Q62351 1-763); experiment: FACS on murine FMA3 cells, 50 µg/ml, penta-His detection (FIG. 16-d right)
T2 construct: whole, on cells; Endogenous receptor on murine cell lines; also called murine transferrin receptor

murine TfR [3] = target: T2, murine TfR; experiment: flow cytometry on murine Ba/F3 cells, 10 µg/ml, anti-human Fc-phycoerythrin (FIG. 18 (b))
[4] = target: T1, human transferrin receptor (TfR); experiment: FACS on LS-174T cells, scFv on phage, anti-M13 detection (FIG. 7)

T1 sequence (P02786 whole entry): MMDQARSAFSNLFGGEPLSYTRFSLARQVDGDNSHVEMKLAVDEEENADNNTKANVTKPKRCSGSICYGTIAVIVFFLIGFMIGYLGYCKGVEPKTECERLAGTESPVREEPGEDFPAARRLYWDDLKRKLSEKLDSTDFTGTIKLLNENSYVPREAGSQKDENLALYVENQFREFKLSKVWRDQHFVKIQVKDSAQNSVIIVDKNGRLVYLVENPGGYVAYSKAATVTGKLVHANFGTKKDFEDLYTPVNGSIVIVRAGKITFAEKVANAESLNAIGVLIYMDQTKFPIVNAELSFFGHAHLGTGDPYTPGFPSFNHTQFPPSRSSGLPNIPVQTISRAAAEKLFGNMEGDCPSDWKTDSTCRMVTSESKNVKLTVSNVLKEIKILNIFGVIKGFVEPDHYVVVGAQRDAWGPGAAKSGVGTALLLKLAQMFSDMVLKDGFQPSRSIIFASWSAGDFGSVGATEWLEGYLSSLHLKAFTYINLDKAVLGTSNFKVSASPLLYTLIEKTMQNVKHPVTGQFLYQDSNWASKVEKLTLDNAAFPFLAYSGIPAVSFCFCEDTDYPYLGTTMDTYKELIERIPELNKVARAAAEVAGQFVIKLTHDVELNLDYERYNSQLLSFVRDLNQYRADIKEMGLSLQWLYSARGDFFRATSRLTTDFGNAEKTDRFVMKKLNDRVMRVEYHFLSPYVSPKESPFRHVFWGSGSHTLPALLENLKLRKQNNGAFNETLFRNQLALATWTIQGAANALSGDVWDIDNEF
T2 sequence (Q62351 whole entry): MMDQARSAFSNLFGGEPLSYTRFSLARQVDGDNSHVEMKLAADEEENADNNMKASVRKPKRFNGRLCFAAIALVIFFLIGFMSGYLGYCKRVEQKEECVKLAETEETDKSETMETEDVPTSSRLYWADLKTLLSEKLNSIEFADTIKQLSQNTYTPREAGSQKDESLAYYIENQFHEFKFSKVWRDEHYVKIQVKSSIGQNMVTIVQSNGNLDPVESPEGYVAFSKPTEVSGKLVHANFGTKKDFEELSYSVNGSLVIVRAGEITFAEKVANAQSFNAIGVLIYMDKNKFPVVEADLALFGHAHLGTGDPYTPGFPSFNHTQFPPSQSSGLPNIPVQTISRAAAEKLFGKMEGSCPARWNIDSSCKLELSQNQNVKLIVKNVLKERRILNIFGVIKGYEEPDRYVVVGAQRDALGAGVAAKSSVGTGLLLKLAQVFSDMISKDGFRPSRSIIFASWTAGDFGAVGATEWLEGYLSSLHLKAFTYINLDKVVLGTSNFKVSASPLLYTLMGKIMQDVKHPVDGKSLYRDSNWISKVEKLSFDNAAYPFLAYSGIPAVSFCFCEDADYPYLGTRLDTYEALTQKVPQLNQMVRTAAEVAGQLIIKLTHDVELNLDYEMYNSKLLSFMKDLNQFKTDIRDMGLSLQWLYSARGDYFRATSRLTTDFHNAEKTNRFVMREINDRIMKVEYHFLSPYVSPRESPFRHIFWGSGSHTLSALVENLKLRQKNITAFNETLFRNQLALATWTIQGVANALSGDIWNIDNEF

Row | Binder | IC50 (µg/ml), proliferation test on the line ERY-1, three days [1] [µg/mL] | binding result [4] | further results
1 | B1 | 0.35 | – | –
2 | B2 | 0.1 | – | binding result (murine TfR [2]): binds
3 | B3 | – | – | binding result (murine TfR [3]): binds
4 | B4 | – | binds | –
5 | B5 | – | binds | –
6 | B6 | – | binds | –
